Measured values reported in patent US9803012B2, “Compositions and methods for regulating SAS1R” (UNIVERSITY OF VIRGINIA PATENT FOUNDATION, priority 2005, dated 2017).

Assays:
[1] = target: T1, rSAS1R (Mus musculus, UniProt Q6HA09); test: Far-Western analysis between SAS1R and SLLP1; type: binding
T1 construct: The mature rSAS1R (414 residues); 20 vector-encoded residues including His6 (pET-28b) (N); made in house; host or cells: E. coli BL21DE3
T1 sequence (Q6HA09 22-435): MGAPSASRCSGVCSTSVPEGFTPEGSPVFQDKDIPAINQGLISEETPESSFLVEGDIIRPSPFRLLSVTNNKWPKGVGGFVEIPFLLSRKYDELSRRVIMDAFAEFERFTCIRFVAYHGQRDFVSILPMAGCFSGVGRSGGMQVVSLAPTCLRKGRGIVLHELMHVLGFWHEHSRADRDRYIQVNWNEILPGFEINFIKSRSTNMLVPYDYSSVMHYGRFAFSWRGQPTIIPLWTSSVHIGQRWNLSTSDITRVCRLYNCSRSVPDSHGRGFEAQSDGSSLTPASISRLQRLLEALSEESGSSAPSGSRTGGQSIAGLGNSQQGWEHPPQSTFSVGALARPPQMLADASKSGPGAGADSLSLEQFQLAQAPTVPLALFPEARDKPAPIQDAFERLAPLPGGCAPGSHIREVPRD
T1 sequence (Q9D9X8 94-221 partner limits assumed): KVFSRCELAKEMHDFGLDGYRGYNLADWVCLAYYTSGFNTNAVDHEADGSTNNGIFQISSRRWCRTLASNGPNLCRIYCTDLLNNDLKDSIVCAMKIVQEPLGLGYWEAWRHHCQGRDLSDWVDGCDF
Experimental: Purified rSAS1R on nitrocellulose membrane was overlaid or not with soluble rSLLP1, washed and probed with anti-SLLP1 antibody.
Purified recombinant SAS1R was resolved by SDS-PAGE and transferred to nitrocellulose membranes. The membrane was probed with c-terminal anti-his monoclonal antibody and developed with TMB. Duplicate SAS1R blotted strips were overlaid with mouse rSLLP1 or not (with 5 μg/ml in blocking buffer i.e., 5% milk in PBS with 0.05% Tween 20 [PBST]) for 90 min at room temperature. Before protein overlay, the strips were incubated with blocking buffer for 1 h. Following overlay, the strips were incubated with either anti-SLLP1 (ADD2) monoclonal antibody for 1 h in blocking buffer. After washing in PBST (×4), the strips were probed with goat anti-mouse HRP secondary antibody in blocking buffer for 1 h, washed in PBST (×4) followed by PBS (×1), and developed with TMB.
To that end, 7.0 μg of recombinant ZEP was loaded onto a 12% SDS gel, subjected to PAGE, and transferred to a nitrocellulose membrane. The membrane was overlaid (OL) with recombinant SLLP1 (2.0 μg/ml) and probed with anti-SLLP1 monoclonal antibody and secondary antibody.

[2] = test system: M2 oocytes; test: Co-localization of rSLLP1 binding sites and SAS1R on oocytes; type: cell-based, mouse; conditions: oocytes incubated with rSLLP1, probed with SLLP1 and SAS1R antibodies
Experimental: Zona intact-, zona free oocytes, early embryos and sperm were collected as before (10), blocked and probed with 1st and 2nd antibody and imaged with UV-microscopy. For co-LC studies, gametes were incubated with soluble rSAS1R or rSLLP1, washed, probed with 1st- and 2nd antibodies and imaged with UV-microscopy.
Mouse oocytes were also examined for co-localization of SLLP1 binding sites and SAS1R localization. Oocytes were incubated with gradually increasing concentrations (0-100 μg/ml) of recombinant SLLP1 for 1 h, and then oocytes were washed five times and incubated with guinea pig anti-recombinant SAS1R polyclonal antibody (1:200) and rat anti-recombinant SLLP1 polyclonal antibody (1:200), simultaneously, in 0.1% NGS/media for 1 h at 37° C. and 5% CO2. Oocytes were washed five times and incubated with goat anti-guinea pig/Cy3 Red antibody (1:200) (Jackson ImmunoResearch, PA) and goat anti-rat/FITC Green antibody (1:200) (Jackson ImmunoResearch, PA), in 0.1% NGS/media for 1 h at 37° C. and 5% CO2. Oocytes were washed and mounted in media on glass slides. SLLP1 and SAS1R images were captured separately with MrGrab 1.0 (Carl Zeiss Vision GmbH, Germany) on the Zeiss Standard 18 ultraviolet microscope and were merged digitally to evaluate their respective localizations.

[3] = test system: Metaphase II eggs; test: Egg labeling by indirect immunofluorescence; type: cell-based, mouse; conditions: 100 μg/ml protein, 45 min
Experimental: Metaphase II eggs were obtained as previously described (Coonrod et al, 1999) and incubated with 5% NGS/media for 30 min. Oocytes were washed five times in TYH medium and incubated with 100 μg/ml recmSLLP1 or 100 μg/ml lysozymes for 45 min at 37° C. and 5% CO2. Oocytes were washed five times and incubated with guinea pig anti-recmSLLP1 polyclonal antibody (1:50), sheep anti-human lysozyme (1:25) or rabbit anti-chicken lysozyme (1:400) in 5% NGS/media for 1 h at 37° C. and 5% CO2. Oocytes were washed five times and incubated with donkey anti-guinea pig/Texas Red antibody (1:200) or goat anti-guinea pig/FITC antisera 1:200), donkey anti-sheep and goat anti-rabbit FITC-labeled secondary antibody (1:200) (Jackson ImmunoResearch), respectively in 5% NGS/media for 1 h at […] 37° C. and 5% CO2. Oocytes were washed and mounted in media onto glass slides and visualized under a Zeiss Standard 18 ultraviolet microscope. Images were captured by using MrGrab 1.0 (Carl Zeiss Vision GmbH, Germany).

[4] = target: T2, recombinant MET (Mus musculus, UniProt Q9CWU5); test: Far-Western analysis of MET and SLLP1; type: binding; conditions: 7 μg recombinant MET, recombinant SLLP1 overlay 2 μg/ml
T2 construct: A complete cDNA encoding 440 amino acids was amplified from cDNA library (Ambion) of mouse ovary and cloned in pET expression vector; His-tag (pET fusion); made in house; host or cells: E. coli BL21
T2 sequence (Q9CWU5 1-440): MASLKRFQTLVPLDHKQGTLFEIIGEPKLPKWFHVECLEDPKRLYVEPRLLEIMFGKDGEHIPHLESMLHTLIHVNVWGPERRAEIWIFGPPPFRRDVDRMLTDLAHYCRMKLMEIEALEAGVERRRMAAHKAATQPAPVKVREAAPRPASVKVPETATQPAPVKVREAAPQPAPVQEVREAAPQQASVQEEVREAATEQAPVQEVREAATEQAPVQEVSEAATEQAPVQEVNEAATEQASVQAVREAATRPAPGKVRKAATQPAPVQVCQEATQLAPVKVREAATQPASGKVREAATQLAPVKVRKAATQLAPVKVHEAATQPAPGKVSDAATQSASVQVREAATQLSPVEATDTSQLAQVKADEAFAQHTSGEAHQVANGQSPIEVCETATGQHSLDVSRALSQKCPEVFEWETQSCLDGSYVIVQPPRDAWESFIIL
T2 sequence (Q9D9X8 94-221 partner limits assumed): T1 sequence (Q9D9X8 94-221 partner limits assumed)
Experimental: To that end, 7 μg of recombinant MET was loaded on 12% SDS-PAGE and transferred to nitrocellulose. The membrane was overlaid (OL) with recombinant SLLP1 (2 μg/ml) and probed with anti-SLLP1 monoclonal antibody and secondary antibody.

[5] = test system: zona-free mouse eggs; test: In vitro fertilization with zona-free eggs (sperm-oolemma binding and fusion); type: cell-based
[6] = rSLLP1 overlay 5 μg/ml, anti-SLLP1 monoclonal antibody

B1: recmSLLP1: mature mouse SLLP1, residues 94 to 221, six-histidine C terminal tag, expressed in E. coli, about 15 kDa (protein)
chain: T1 sequence (Q9D9X8 94-221 partner limits assumed)
modifications: left off: small tags and cut ends
binding to recombinant ZEP bands ([1]; 7.0 μg recombinant ZEP, recombinant SLLP1 overlay 2.0 μg/ml): signal was observed with the upper band of ZEP, but not with the lower band | interaction with C-terminal SAS1R fragment (~25 kD) [1, 6]: very weakly | interaction with full length SAS1R doublet (~51, ~50 kD) [1, 6]: interacted strongly | binding to oocytes [2]: binds to oocyte microvillar domain and co-localizes with native SAS1R | fluorescence of mouse oocytes after incubation with protein and respective antibody [3]: fluorescent labeling within the perivitelline space and over much of the oocyte surface | binding to purified MET [4]: strong signal | percentages of motile spermatozoa compared to the control [5]: no difference
